The supplement of paper PMC9170038

Test system: K4 kissing-loop RNA reporter
Experiment: apparent KD of K4 kissing-loop reporter; higher = weaker reporter binding
Conditions: Eterna round: R107
Procedure: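 RNA-MaP round R107: designed RNA switches with theophylline, tryptophan, arginine or FMN aptamers are transcribed on-chip within common flanks. They are titrated with a labelled K4 kissing-loop RNA reporter in RNA-MaP buffer (100 mM Tris pH 7.5, 80 mM KCl, 4 mM MgCl2), without ligand or with the indicated ligand. Median apparent KD per design.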

[1] = input ligand: theophylline 20 uM
[2] = input ligand: tryptophan 2.4 mM
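Further: bound reporter read as fluorescence of individual clusters on recovered sequencing chips by microscopy, with normalized cluster intensities fitted with a binding model.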

| Sequence | apparent KD of K4 kissing-loop reporter (input ligand: FMN 200 uM) | apparent KD of K4 kissing-loop reporter (input ligand: arginine 13.2 mM) | apparent KD of K4 kissing-loop reporter (input ligand: none) | apparent KD of K4 kissing-loop reporter [1] | apparent KD of K4 kissing-loop reporter [2] |
| --- | --- | --- | --- | --- | --- |
| GGUUCGAGUGAUGUUCGGGUCGAUUGGGAAGGAGCGCCCGGAAGGGCAGGUAGGUCGCCCGGGCCGCGCGGGAAACCGCGCGUCC [#2 Same State - Arginine A Attempt #7 (HarryS)] | 216 nM | 121 nM | 175 nM | 147 nM | 144 nM |
| GAGCGGUGGAGGUUACCGCUAUUCUGAGAAGGAGCGCAGAUGACUGCAGGUAGGUCGCUUAGAGCUUGCAGUGAUGUUGCAAGUU [Edrirama] | 197 nM | 177 nM | 213 nM | 193 nM | 213 nM |
| CCAUCGCUAUUCGAUACCAGCUACUUAGUGAUGUUAAGUUUAUAUCCACUGUAGGUGGAAAGCCCUUGGCAGCGAAUAGUGAUGG [Theophylline B K4 25] | 436 nM | 412 nM | 491 nM | 223 nM | 425 nM |
| AACUGUCAAGGACAACAUUACUGAGGUGAUACCAGCAUCGAAAGAUGCCCUUGGCAGCACCAACUUGCAGUGAUGUUGCAAGUAA [Design6] | 212 nM | 184 nM | 212 nM | 279 nM | 214 nM |
| GCAGGACGAGGAGGAGGAUGAAUUACUGAAGGAGCGCAUAUGGUUGCAGGUAGGUCGCGGUAAACAAGUAUAGUGAUGUUAUAUC [SSArgA.P] | 913 nM | 586 nM | 552 nM | 621 nM | 584 nM |
| AAGGUAUCACCACAACAUCACUAAGGUGAUACCAGCAUCGAAAGAUGCCCUUGGCAGCACCAACUUGCAGUGAUGUUGCAAGUAA [(T)'-(H)'-(T1)-(T2)-(H1)-(H2)_Design9] | 417 nM | 310 nM | 365 nM | 438 nM | 366 nM |
| GCCGUAGAUGGAAGGAGCGUGUCAAAGUGAUGUUUUGAUUAACUCCCUAAGGGAUAGAUGACACAGGUAGGUCGCCAUCUACGGC | 74.5 nM | 63.5 nM | 74.3 nM | 102 nM | 63.3 nM |
| GCUAAGGAGUGAUGUUCCAAGUGAUGUUAACGAGGACCGGUACGGCCGCCACUCGAUACGGCCGGACCGUAAGAUAAACUACAGC [Same State - Tryptophan A (Freestyle 6)] | 206 nM | 182 nM | 213 nM | 279 nM | 194 nM |
| AUAAUAUGAGUGAUGUUCAUGUAAGCUGAAGGAGCGGACGAAAGUCCAGGUAGGUCGCAGCGUUCCUUUACCUCAUGAGAAGGAG [KL_SSArg-A1 #analogue] | 125 nM | 184 nM | 203 nM | 235 nM | 127 nM |
| GCUAUGGUAGGAAGGAGCGCUUGUUCGGUCAUAUGAGUGAUGUUCGAGACUGAGCAUUUAUAGCAGGUAGGUCGCCUACUAUAGC [Arginine B K4 10] | 164 nM | 179 nM | 181 nM | 160 nM | 175 nM |
| GGUAGCAUGGCGGCCGCCACUCGGACGACAUAGCACAUGUCGACCAGUGAUGUUGGUUCAAACACGAGGACCGGGCCAUGCUACC | 724 nM | 715 nM | 798 nM | 629 nM | 135 nM |
| GCCGUAGAUUGAAGGAGCGCCUUCUUACCAAGAGUGAUGUUCUUUGGUACCAUGUUCAGUAGGCAGGUAGGUCGCAAUCUACGGC | 292 nM | 258 nM | 332 nM | 387 nM | 390 nM |
| UGACAUUGCUCAGAUACCAGACCUGAGGAUCACCCGGGUGCCAAACGUACAAUAAUAAAGGUCCCUUGGCAGCUGAGCAAUGUCU [TheoBX 14] | 56.2 nM | 39.7 nM | 103 nM | 68.4 nM | 83.9 nM |
| GCGCGUCAUGUCAGCGGUGACUACGUCGAUACCAGCAGGGAAACCUGCCCUUGGCAGCGACGCGCUGGAGUGAUGUUCCGACGGA [#2 Exclusion - Theophylline A Attempt #6 (HarryS)] | 434 nM | 431 nM | 544 nM | 854 nM | 442 nM |
| GGUUGAAGUACCCGGAGUGAUGUUCCGGAUACCAGCAAACCAACUUGCCCUUGGCAGCCGUAUAGCGUCCGGUGGACCGAGCAUA [Soriesreve] | 98.5 nM | 70.3 nM | 77.4 nM | 76.2 nM | 78.7 nM |
| AGGGAUGUUAAAGGAUAUAGAAAGUGAUGUUAGAAAGUGAGUGAUGUUGAUGUUAGUGAUGUUAUGUUAGAAGGUUAACAAAACG [a] | 256 nM | 149 nM | 211 nM | 192 nM | 161 nM |
| GGUGGACUAGUCGAGUGAUGUUCGAGGCAUCGAGGACCGGUACGGCCGCCACUCGCAAAUCUACCGUGCGUUAACCACCAAAGUG [theeternabot_sameState_KL_Trp_A_37] | 295 nM | 152 nM | 304 nM | 317 nM | 344 nM |
| GUGCGCGCGGCGGCCGCCACUCGCAUGAGAGUGAUGUUCUUGCCCGGGCCGCAAGGCCCGGGUGUGAGGACCGGGCCGGGCUGCG [#2 Same State - Tryptophan B Attempt #26 (HarryS)] | 115 nM | 1.09 nM | 180 nM | 0.148 nM | 425 nM |
| AAUAUAUAGUGAAGGAGCGCGAUAAGCAGUGAUGUUGCUUUGUUAUGAUUGUCUAUUUUUACGCAGGUAGGUCGCACUAUAUAUA [JR_ExcArginiB_Sub020] | 165 nM | 104 nM | 126 nM | 109 nM | 122 nM |
| UUUCGUAGAAGUGAUACCAGACUUGAAAGUGAUGUUUUCCAAUAAUUUAAAUUUUUAGCUGUCCCUUGGCAGCACAGUUUAUUUA [JR_Nu_ExcTheophyB_Sub026] | 218 nM | 298 nM | 263 nM | 334 nM | 165 nM |
| UGUAUAGUCAGAAGGAGCGUGAACGAUCGAGAAUCGAUCAGCCAGUGAUGUUGGCAGGAAUCACAGGUAGGUCGCUGACUGUACA [Arg B SS t3] | 237 nM | 208 nM | 258 nM | 240 nM | 208 nM |
| UGAUAGGACAGAAGGAGCGGGCUAGUCAAAGACUAGCAAACGUUAAUAACAGGAGUGAUGUUCCAGGUAGGUCGCUGUCCUAUCU [ArgBX 25 #SwitchBubble #StaticStem] | 136 nM | 120 nM | 143 nM | 138 nM | 120 nM |

| Sequence | apparent KD of K4 kissing-loop reporter (input ligand: FMN 200 uM) | apparent KD of K4 kissing-loop reporter (input ligand: arginine 13.2 mM) | apparent KD of K4 kissing-loop reporter (input ligand: none) | apparent KD of K4 kissing-loop reporter [1] | apparent KD of K4 kissing-loop reporter [2] |
| --- | --- | --- | --- | --- | --- |
| AGAAACUUGUAUGUCGGGUGUGCGCGCGAUACCAGCCAAAUGGAUGGCCCUUGGCAGCGCAGCGAGUGAUGUUCGCCCGCUUGAC [Exclusion Theophylline A GF 22] | 251 nM | 239 nM | 302 nM | 354 nM | 232 nM |
| UGGCCUUAAAUUCUAGGAUUAGCGACGUACAAGGAUAUUCGUCAUCGAAGAAGGUGUAGCUAGGAGAGUGAUGUUUUCCAUCGCC [theeternabot_sameState_KL_FMN_A_15] | 640 nM | 449 nM | 549 nM | 576 nM | 504 nM |
| UUAGAAGUAUACUUCAAGAGCUAUACUGAUACCAGAGUCAAUUGACUCCCUUGGCAGCGGAUCGAGUGAUGUUCGUAAGCUCAUU [AK4 SS Theophylline A] | 464 nM | 456 nM | 583 nM | 521 nM | 502 nM |
| CCGCUGUACUGCAUUAAGUGAUGUUUAGUGCAGGAUAUCUGGAAACAGAGAAGGGCAUGUACUCGACUUAGCCACUACAGCGGUU | 221 nM | 123 nM | 142 nM | 119 nM | 129 nM |
| UAAUGCAUGACGGCCGCCACUAGUACUGGAGUGAUGUUGUGGUACGGCGGCAGUUUAGGGUGGACUAGGACCGGGUCAUGCAUAU [KL-XTryp-B10 #analogue] | 461 nM | 314 nM | 339 nM | 305 nM | 356 nM |
| GGCAGUGAUGUUGCCAGUGGCAGAUGAGAAGGAGCGUGGUGAGACACAGGUAGGUCGCUCAUUGAAAUUGCUGUCACUAAAAUGC [#5] | 289 nM | 322 nM | 266 nM | 234 nM | 215 nM |
| AUCGUUGUCUGAGGAUAUCGGUUAACUGUAGUGAUGUUACAGAAAAUUCAUAUAAUAUUUUCUAUUCGAGAAGGCAGACUACGUA [JR_ExcFMNB_Sub018] | 205 nM | 157 nM | 167 nM | 178 nM | 177 nM |
| AGCUCAGAGUGACUCGAUAAGAGUCACAAACGAGGACCGGUACGGCCGCCACUCGAAAUAACGAGAGUGAUGUUUUCGCUGAGCA [FiskerMod 6 - Jieux - Same State Tryptophan A] | 935 nM | 630 nM | 857 nM | 660 nM | 541 nM |
| AGGAGUGAUGUUCCUACAUAGACGGUCCAACGAGGACCGGUACGGCCGCCACUCGCGACCCAGUGAUGUUGGGAUUCACCGUACA [Exclusion Tryptophan A Gf 14] | 723 nM | 753 nM | 818 nM | 836 nM | 812 nM |
| CGUUUAUAGCAGGAUACCAGUACCCAUAAAGUACGUUAAUAGUAGAGUGAUGUUCUAAAGUACCCUUGGCAGCUUCCAGUGAGUG [ExTheophylB.S] | 102 nM | 157 nM | 142 nM | 165 nM | 85.3 nM |
| CCGAAGAACCAGUGAUGUUGGUUGACUAGACAGGAUAUGAGCAACAUCAGAAGGGUCUGGCUUCGGGAGUAGGUCGCGCUGACCC [Diarrebi] | 482 nM | 231 nM | 624 nM | 1260 nM | 231 nM |
| ACUAAGGUUUUUGGAGCAGUGAUGUUGCUCCGAGGACCGGUACGGCCGCCACUCGGUGCAUGUAUGCGCUUCACUCCGGAAGUUG [Bieron] | 152 nM | 140 nM | 165 nM | 148 nM | 139 nM |
| UUUAUUAAGACGGCCGCCACUGAAUUAGAGUGAUGUUCUAAAAUUUUUAAUUUUUUUUUUUUCAGCAGGACCGGGUCAAUUAUUA [JR_SSTryptoB_Sub012] | 128 nM | 95.3 nM | 116 nM | 142 nM | 94.5 nM |
| AAGGAAUGUAUAGAUUAUAUACAUUCAACAGAGGAUAUGCAUUAUUGCAGAAGGCUGAAUGCAGUGAUGUUGCAAUAAUUAUUUA [#09 K4 FMN A Same State] | 60.5 nM | 199 nM | 181 nM | 291 nM | 129 nM |
| CCAACAACGAGUGAUGUUCGUUGAUCUGAAGGAGCGUCAAUAAUGACAGGUAGGUCGCAGAUAAUUGGAUAUAGGGCAAUAGCUC [Same State Arginine A GF13] | 109 nM | 116 nM | 125 nM | 115 nM | 102 nM |
| UGAUAGGACAGAAGGAGCGAGGAGUGAUGUUCCUCAAAAGGUCUAGCAAAGCUAGACCCUCCUCAGGUAGGUCGCUGUCCUAUCU [ArgBX 1 #Palindromic #SwitchBubble #StaticStem] | 174 nM | 162 nM | 167 nM | 232 nM | 158 nM |
| ACACUCGGCUCGGCCGCCACUCCAGUGAUGUUGGAGUCAUAGCUAUGACGAGAAGAGCGUUUUCGGAGGACCGGGAGCUCACAGG [Leveeder] | 338 nM | 261 nM | 359 nM | 351 nM | 222 nM |
| CAUACGCAUGGAGGAUAUGAGAUUACUCAUAUCAUUUAAUAUUCUCAGUGAUGUUGAGAUUUGGGCUCAGAAGGCCAUGUGUAUG [Ex FMN B 15] | 479 nM | 304 nM | 339 nM | 343 nM | 317 nM |
| AGAAGGAGAACUGCAAGAACUCCUUCAGACUAGGAUAUCAGGAAACUGAGAAGGAGUCAACUUGCAGUGAUGUUGCAAGAAUAAU [[F]''-[K]'-[F]'-[F1]-[F2]-[K1]-[K2]_Design1] | 155 nM | 114 nM | 119 nM | 103 nM | 131 nM |
| UAUGAAUGUGGAGGAUAUUGAUUGAAUCUUGGUCUGGAGUGAUGUUCCGGGAAGCCUUGGAUUCAUCGAGAAGGCCAUGGAUAGU [#03 K4 FMN B Same State] | 111 nM | 111 nM | 118 nM | 109 nM | 95.9 nM |
| GUACGCUCUCGAGUGAUGUUCGGUAAUCCUUAGGAUAUCGCUUUUGCGAGAAGGAAGGGAAUGAGGAAACUCGUUCUGAGUGUAC [FMN A 21] | 523 nM | 299 nM | 366 nM | 481 nM | 743 nM |
